Test [1] concerns the target T1, full-length beta-Catenin (Uniprot ID P35222) (Homo sapiens (Human), UniProt P35222 2-781).
T1 construct: also called bCat; B-Catenin
T1 sequence: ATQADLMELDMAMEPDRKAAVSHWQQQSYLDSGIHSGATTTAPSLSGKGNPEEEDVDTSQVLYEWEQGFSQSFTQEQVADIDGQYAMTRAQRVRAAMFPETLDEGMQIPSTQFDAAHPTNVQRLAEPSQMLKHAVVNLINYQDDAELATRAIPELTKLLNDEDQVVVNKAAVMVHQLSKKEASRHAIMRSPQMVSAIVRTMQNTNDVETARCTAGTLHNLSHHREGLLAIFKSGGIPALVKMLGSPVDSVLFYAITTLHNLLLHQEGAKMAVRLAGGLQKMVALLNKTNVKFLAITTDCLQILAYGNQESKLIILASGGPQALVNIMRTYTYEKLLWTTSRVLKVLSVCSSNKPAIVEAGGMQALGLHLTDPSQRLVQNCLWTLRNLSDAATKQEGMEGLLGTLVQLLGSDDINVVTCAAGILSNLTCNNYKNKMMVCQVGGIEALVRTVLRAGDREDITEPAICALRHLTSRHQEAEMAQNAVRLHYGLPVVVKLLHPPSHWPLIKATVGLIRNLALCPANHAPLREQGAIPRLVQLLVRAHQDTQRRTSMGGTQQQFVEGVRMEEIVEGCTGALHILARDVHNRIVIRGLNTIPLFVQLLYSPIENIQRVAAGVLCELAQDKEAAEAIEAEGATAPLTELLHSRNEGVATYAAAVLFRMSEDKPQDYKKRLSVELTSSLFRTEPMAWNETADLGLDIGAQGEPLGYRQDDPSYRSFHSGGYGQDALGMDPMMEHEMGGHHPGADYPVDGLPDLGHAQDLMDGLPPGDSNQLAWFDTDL
The test is described as follows: fluorescence polarization competition vs 5FAM-TCF4(10-53) on full-length beta-catenin. On the procedure:
The plate was incubated protected from light for 60 minutes at 20° C. prior to read. Reads were performed on a CLARIOstar plate reader (BMG Labtech) in duplicate, and data were fitted to a 1:1 binding model with hill slope using an in-house script. All provided concentrations are final concentrations.
A general note: Fluorescence polarisation rises when a labelled molecule tumbles more slowly, as on binding a larger partner.

A further test concerns the target T2, Bcat-Halo (UniProt P35222 1-781, HaloTag NanoBRET 618 Ligand bound in the assay).
T2 construct: Expressed by transfection in HEK293 cells; also called beta-catenin HaloTag NanoBRET construct; not shown: HaloTag
T2 sequence (looked up): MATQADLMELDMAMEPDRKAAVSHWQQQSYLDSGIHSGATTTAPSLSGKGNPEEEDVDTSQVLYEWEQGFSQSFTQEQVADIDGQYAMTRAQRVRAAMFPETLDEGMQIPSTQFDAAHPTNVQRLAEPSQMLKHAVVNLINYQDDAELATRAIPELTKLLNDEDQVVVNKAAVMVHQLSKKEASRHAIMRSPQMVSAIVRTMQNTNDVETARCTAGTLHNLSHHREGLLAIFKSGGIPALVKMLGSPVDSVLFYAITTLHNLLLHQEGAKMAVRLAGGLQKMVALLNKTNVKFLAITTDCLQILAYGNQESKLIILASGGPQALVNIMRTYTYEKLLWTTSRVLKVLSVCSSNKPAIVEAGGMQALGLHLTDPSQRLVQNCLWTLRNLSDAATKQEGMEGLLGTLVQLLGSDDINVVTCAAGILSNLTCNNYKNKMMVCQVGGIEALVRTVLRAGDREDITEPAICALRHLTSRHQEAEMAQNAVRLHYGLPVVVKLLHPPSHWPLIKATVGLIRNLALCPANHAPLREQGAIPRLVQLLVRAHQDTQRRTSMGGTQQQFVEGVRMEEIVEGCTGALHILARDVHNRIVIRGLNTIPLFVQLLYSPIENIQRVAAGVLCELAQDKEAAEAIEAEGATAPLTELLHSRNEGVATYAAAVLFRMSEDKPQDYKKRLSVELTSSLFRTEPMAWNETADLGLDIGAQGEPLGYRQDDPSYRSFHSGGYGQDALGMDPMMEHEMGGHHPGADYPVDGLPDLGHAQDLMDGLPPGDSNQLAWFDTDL
The test is described as follows: NanoBRET Abs IC50 in HEK293 cells; competitor TCF4-Luc on Bcat-Halo.

Test [2] addresses T3, full-length beta-Catenin (Uniprot ID P35222) (Homo sapiens (Human), UniProt P35222 1-781).
T3 construct: The assay text says full-length; also called bCat; B-Catenin
T3 sequence: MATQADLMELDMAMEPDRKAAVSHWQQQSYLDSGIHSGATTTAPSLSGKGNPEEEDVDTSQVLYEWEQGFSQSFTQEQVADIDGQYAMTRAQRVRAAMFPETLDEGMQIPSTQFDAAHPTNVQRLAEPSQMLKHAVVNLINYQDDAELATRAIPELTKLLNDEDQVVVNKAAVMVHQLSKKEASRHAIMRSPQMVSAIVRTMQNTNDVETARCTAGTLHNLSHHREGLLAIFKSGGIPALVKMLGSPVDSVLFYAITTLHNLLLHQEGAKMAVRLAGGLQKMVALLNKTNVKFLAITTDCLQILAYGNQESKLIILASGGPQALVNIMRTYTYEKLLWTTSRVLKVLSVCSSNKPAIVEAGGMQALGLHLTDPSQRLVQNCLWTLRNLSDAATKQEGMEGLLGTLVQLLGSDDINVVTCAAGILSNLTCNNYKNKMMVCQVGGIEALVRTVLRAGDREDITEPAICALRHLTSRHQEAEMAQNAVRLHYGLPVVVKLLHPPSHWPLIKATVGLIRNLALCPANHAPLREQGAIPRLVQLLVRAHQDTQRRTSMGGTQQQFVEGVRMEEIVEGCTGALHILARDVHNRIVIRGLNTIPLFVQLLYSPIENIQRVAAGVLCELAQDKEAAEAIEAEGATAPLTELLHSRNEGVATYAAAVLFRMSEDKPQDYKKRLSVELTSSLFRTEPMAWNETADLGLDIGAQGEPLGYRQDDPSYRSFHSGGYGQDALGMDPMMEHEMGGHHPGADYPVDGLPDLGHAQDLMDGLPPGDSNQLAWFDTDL
The test is described as follows: fluorescence polarization competition; full-length beta-catenin with 5FAM-TCF4(10-53) probe as competitor. The method in brief:
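Data fitted to 1:1 binding model with hill slope from duplicate reads taken after 60 minutes at 20° C. in the dark.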

In test [3] the target is T4, full-length beta-Catenin (Uniprot ID P35222) (Homo sapiens (Human), UniProt P35222 2-781).
T4 construct: The assay protocols say only 'full-length'; No tag is stated, although the AlphaScreen kit is a Histidine (Nickel Chelate) kit; also called B-Catenin; bCat
T4 sequence: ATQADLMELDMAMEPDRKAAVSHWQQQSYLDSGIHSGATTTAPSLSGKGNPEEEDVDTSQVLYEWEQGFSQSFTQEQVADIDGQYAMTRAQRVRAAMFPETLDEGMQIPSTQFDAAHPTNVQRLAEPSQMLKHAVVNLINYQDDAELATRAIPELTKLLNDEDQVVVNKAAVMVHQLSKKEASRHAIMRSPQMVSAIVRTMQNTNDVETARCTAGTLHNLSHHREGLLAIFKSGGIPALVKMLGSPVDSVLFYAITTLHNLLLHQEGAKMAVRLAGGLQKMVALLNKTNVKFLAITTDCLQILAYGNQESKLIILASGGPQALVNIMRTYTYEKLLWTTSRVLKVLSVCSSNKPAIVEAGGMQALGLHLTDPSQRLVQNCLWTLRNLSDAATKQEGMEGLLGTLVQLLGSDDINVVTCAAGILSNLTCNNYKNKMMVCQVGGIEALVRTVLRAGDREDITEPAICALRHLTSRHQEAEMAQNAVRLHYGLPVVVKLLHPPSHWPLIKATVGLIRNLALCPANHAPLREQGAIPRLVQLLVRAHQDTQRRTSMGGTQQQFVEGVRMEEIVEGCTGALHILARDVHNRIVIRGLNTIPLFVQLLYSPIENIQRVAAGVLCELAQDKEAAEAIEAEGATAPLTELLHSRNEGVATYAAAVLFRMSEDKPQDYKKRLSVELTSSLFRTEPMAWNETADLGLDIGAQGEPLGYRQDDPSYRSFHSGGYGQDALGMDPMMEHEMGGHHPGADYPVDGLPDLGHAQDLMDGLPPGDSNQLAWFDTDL
The test is described as follows: AlphaScreen competition; peptide titrated against full-length beta-catenin + biotin-TCF4(10-53). On the procedure: Equal volume of the titrated peptide was added to the plate and incubated for 15 minutes at 20° C. Then 4 uL of donor and 4 uL acceptor beads at 10 ug/mL were added to the plate, for a 16 uL reaction pool and protected from light for 60 minutes at 20° C. prior to read. Reads were performed on a CLARIOstar plate reader (BMG Labtech) in duplicate, and data were fitted to a 1:1 binding model with hill slope using an in-house script. All provided concentrations are final concentrations.
(In Alpha technology, singlet oxygen from a donor bead excites a nearby acceptor bead.)

Starred links: 1 amine or outer side, 2 acyl side, 3 side chain; linkers in the order of their positions; H or OH if unused. Positions of bridges follow the written chain, without caps; N, C: chain ends. Non-standard residues stand in square brackets, D forms with d. Primed or numbered codes have the meaning given here. PyrS2″ = (S)-3-amino-1-((pent-4-en-1-yloxy)carbonyl)pyrrolidine-3-carboxylic acid (stapling residue), C=CCCCOC(=O)N1CC[C@@](N[*:1])(C(=O)[*:2])C1; B5(16) = 2-amino-2-(pent-4-en-1-yl)hept-6-enoic acid = 2,2-bis(4-pentenyl)glycine (stitching residue), C=CCCCC(CCCC=C)(N[*:1])C(=O)[*:2]; Phe(2-Cl) = N[C@@H](Cc1ccccc1Cl)C(=O)O; Bta = N[C@@H](Cc1csc2ccccc12)C(=O)O; αAllylPro = C=CC[C@@]1(C(=O)O)CCCN1

B1: I-1155 (peptide)
peptide: Ac-[αAllylPro]DF[B5(16)]DDLLFS[PyrS2″][Phe(2-Cl)][Bta]Q-NH2
modifications: staple 1-4, 4-11
notes: Stapled (stitched) peptide composition; olefin isomer not specified
The molecule B1 came in with an IC50 in test [1] of 60 nM.

B2: I-1153 (peptide)
peptide: Ac-[αAllylPro]DF[B5(16)]DDLAFS[PyrS2″][Phe(2-Cl)][Bta]Q-NH2
modifications: staple 1-4, 4-11
notes: as for B1
In the case of B2, the IC50 in test [1] was 12 nM; in the test with Bcat-Halo, above 20000 nM.

B3: I-1154 (peptide)
peptide: Ac-[αAllylPro]DF[B5(16)]DDALFS[PyrS2″][Phe(2-Cl)][Bta]Q-NH2
modifications: staple 1-4, 4-11
notes: as for B1
With B3, in test [1], the IC50 amounted to 45 nM.

B4: I-618 (peptide)
peptide: XDLXDEAAFTXFXH
modifications: not fully specified; N-terminal Ac; PL3 (pos 1), B5 (pos 4), S8 (pos 11) stapled (PL3-B5 and B5-S8); BztA (pos 13); C-terminal NH2
notes: Stapled peptide; also called Ac-PL3-Asp-Leu-B5-Asp-Glu-Ala-Ala-Phe-Thr-S8-Phe-BztA-His-NH2
B4 yielded an IC50 in test [2] of 135 nM.

B5: I-350 (peptide)
peptide: XDAXADAAFVXFWQ
modifications: not fully specified; N-terminal Ac; C-terminal NH2; PL3 at 1, B5 at 4, S8 at 11 (stapled 1-4 and 4-11)
notes: Stapled peptide composition; Earlier-eluting isomer composition; also called Ac-PL3-Asp-Ala-B5-Ala-Asp-Ala-Ala-Phe-Val-S8-Phe-Trp-Gln-NH2
As for B5, the EC50 in test [3] is 10000 nM.

B6: I-348 (peptide)
peptide: XAAXDDAAFVXFWQ
modifications: not fully specified; N-terminal Ac; C-terminal NH2; PL3 at 1, B5 at 4, S8 at 11 (stapled 1-4 and 4-11)
notes: Stapled peptide composition; Earlier-eluting isomer composition; also called Ac-PL3-Ala-Ala-B5-Asp-Asp-Ala-Ala-Phe-Val-S8-Phe-Trp-Gln-NH2
For B6, in test [3], the EC50 was 10000 nM.

A word on the IC50: it is the midpoint of a concentration-inhibition curve. Read a low IC50 as inhibition by little substance. What is called EC50 is the concentration needed to bring the measured effect to its halfway point.

The values are drawn from US20240116985A1 (published 2024).
